Ends that are not written are not given here.

The target of this experiment is T1, fibrin in tumor, Neuro 2A neuroblastoma (Mus musculus, UniProt E9PV24+Q8K0E8+Q8VCM7).
T1 construct: from tissue; host or cells: tumor stroma of living mice (BALB-neuT mammary tumor, TRAMP prostate tumor, Neuro-2a neuroblastoma in A/J mice)
T1 sequence (E9PV24 20-557 isoform E9PV24-2 limits assumed): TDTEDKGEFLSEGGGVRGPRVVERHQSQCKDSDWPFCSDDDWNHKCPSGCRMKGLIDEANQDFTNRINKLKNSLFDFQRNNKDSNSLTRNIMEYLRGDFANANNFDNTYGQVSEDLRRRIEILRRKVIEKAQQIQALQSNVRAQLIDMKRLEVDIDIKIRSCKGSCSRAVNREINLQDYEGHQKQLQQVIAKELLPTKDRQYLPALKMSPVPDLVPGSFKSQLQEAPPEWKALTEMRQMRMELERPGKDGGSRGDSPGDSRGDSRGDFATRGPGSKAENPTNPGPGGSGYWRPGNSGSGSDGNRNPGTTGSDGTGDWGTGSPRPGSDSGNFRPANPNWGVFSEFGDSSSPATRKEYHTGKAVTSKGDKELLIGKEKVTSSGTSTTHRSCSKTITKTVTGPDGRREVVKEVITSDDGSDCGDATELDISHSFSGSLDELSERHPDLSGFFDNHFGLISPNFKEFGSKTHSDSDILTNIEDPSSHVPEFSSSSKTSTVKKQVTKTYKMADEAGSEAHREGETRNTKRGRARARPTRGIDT
T1 sequence (Q8K0E8 35-481 limits assumed): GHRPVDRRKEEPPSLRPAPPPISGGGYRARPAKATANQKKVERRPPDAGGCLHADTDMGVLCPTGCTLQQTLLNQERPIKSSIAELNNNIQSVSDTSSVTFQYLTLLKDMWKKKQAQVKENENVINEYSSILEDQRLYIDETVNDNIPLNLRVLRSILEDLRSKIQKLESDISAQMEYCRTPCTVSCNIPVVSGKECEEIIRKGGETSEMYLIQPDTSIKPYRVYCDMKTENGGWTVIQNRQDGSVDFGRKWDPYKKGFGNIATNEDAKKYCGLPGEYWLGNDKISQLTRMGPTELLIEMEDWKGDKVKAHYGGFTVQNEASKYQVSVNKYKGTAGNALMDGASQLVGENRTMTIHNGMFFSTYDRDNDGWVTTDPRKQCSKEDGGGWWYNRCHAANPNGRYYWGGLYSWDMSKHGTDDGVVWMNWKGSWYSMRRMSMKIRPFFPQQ
T1 sequence (Q8VCM7 26-436): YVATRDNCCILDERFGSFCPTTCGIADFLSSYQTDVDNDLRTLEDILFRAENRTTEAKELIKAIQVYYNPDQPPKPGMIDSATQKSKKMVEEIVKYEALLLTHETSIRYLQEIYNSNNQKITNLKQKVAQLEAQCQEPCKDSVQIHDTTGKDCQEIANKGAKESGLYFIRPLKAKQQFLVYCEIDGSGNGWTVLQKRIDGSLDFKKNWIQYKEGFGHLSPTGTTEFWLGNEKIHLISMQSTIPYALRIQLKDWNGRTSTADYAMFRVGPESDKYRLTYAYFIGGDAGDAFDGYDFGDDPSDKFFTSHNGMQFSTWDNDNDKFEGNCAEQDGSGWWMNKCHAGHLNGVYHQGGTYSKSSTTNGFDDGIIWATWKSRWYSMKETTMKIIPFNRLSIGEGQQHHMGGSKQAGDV
The experiment is described as follows: In vivo MRI, neuroblastoma tumor induced by Neuro 2A cells, Example 18. The following applies: 25 μmol/kg of complex, 4 h post injection, 2T. As for the experimental part:
This test has been performed on mice with neuroblastoma tumor induced by inoculation of 2.10^6 Neuro 2A cells.
Two groups of 5 mice each inoculated were formed to test the Reference compound 2 and the Chelate complex 1.
At day-10 post tumor cells inoculation, mice with similar tumor size (5-10 mm in diameter) were selected for the in vivo MRI tests. Before and post contrast administration, T1 and T2 high resolution 2D spin-echo and 3D gradient echo images were acquired. MRI was performed at 4 h and 24 h post injection. The maximum signal intensity was measured in the entire tumor area and in each image post contrast covering the whole tumor and compared to the pre-contrast images. At the end of MRI exams, all animals were sacrificed and the tumor, blood, liver, kidneys and femoral bone were removed and prepared for Gd assay by ICP. […]
The signal intensity was measured within a region of interest (ROI) including the entire tumor, drawn by an operator on each MR image using a dedicated software (MR Research Systems Ltd, Surrey UK). Signal intensity enhancement (Enh %) was determined as: Enh %=100*(SIx(t)−SI0)/SI0 where SI0 and SIx(t) were the signal intensity of tumor pre and post injection of the contrast agent (test articles or reference), respectively.

In the case of “Chelate Complex 1: Gd chelate (four DTPA-Glu) conjugated via linker to fibrin-binding peptide SEQ ID NO:001 (WQPCPAESWTFCWDPGGGK; cysteine pairing not given here; also: Gd chelate (four DTPA-Glu) conjugated via linker, site not given here, metal complex: Gd)”, the “Tumor signal enhancement (T1 weighted MRI), in words” value is “high signal enhancement inside tumor”. For the same substance, the “Tumor signal enhancement (T1 weighted MRI), in words” value (listed as chelate complex 1) is reported as “significant tumor signal enhancement”.

The record behind these values is patent US9333272B2, “Fibrin binding peptide conjugates for diagnostic and therapeutic applications” (Bracco Imaging SpA, priority 2006, dated 2016).
